# Experimental data: patent US20170253656A1 (SUTRO BIOPHARMA, published 2017)
# Residue numbers refer to the chain shown, from its start.
# T1: hu-CD74 antigen (R&D SYSTEMS catalog #3590-CD-050) (human, UniProt P04233-2 73-232, limits assumed)
# T1 construct: Bought antigen; also called rhCD74; human CD74
# T1 sequence (looked up): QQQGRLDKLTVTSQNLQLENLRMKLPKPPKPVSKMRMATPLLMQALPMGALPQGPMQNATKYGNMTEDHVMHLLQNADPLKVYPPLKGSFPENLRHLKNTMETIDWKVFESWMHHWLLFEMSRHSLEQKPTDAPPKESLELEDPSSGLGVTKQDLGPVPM
# B1: HC 1251_A06 (wt)/LC 1337_A07 (wt) (antibody, human IgG1, kappa, V domains shown)
# VH: QVQLVESGGGVVQPGRSLRLSCAASGFDFSSYGMHWVRQAPDKGLEWVAVIWDDGSDRYYADSVKGRFTISRDNSKNTLYLQMNSLRAEDTAVYYCARGGTRVLGAIHGTDVWGQGTTVTVSS
# VL: DIQMTQSPSSLSASVGDRVTITCRASQGISSWVAWYQQKPEKAPKSLIYGASRLQSGVPSRFSGSGSGTDFTLTISSLQPEDFATYYCQQYHTYPLTFGGGTKVEIKR
# notes: IgG format
# B2: HC 1251_A06 (g)/LC 1337_A07 (wt) (antibody, human IgG1, kappa, V domains shown)
# VH: B1 VH with D42G
# VL: B1 VL
# notes: IgG format
# B3: HC 1251_B08 (wt)/LC 1337_A07 (wt) (antibody, human IgG1, kappa, V domains shown)
# VH: QVQLVESGGGVVQPGRSLRLSCAASGFNFSDYGMHWVRQAPDKGLEWVAVIWYDGSISYYADSVKGRFTISRDNSKNTLYLQMNSLRAEDTAVYYCARGGTVEHGAVYGTDVWGQGATVTVSS
# VL: B1 VL
# notes: IgG format
# B4: HC 1251_B08 (g)/LC 1275_C10 (g) (antibody, human IgG1, kappa, V domains shown)
# VH: B3 VH with D42G, A117T
# VL: B1 VL with L11V, I29V, V33L, E41G, S46L, G50S, S52R, R53Y, H92N, T93L
# notes: IgG format
# B5: HC 1251_B08 (g)/LC 1337_A07 (g) (antibody, human IgG1, kappa, V domains shown)
# VH: B3 VH with D42G, A117T
# VL: B1 VL with L11V, E41G, S46L
# notes: IgG format
# B6: HC 1251_B08 (g)/LC 1337_A09 (wt) (antibody, human IgG1, kappa, V domains shown)
# VH: B3 VH with D42G, A117T
# VL: B1 VL with S30G, V33L, G50A, S52D
# notes: IgG format
# B7: HC 1251_B08 (g)/LC 1275_C10 (wt) (antibody, human IgG1, kappa, V domains shown)
# VH: B3 VH with D42G, A117T
# VL: B1 VL with I29V, V33L, G50S, S52R, R53Y, H92N, T93L
# notes: IgG format
# B8: HC 1251_B08 (g)/LC 1337_A09 (g) (antibody, human IgG1, kappa, V domains shown)
# VH: B3 VH with D42G, A117T
# VL: B1 VL with L11V, S30G, V33L, E41G, S46L, G50A, S52D
# notes: IgG format
# B9: HC 1251_B08 (g)/LC 1337_A10 (g) (antibody, human IgG1, kappa, V domains shown)
# VH: B3 VH with D42G, A117T
# VL: B1 VL with L11V, E41G, S46L, A51S, H92N
# notes: IgG format
# B10: HC 1251_A06 (g)/LC 1337_A10 (wt) (antibody, human IgG1, kappa, V domains shown)
# VH: B1 VH with D42G
# VL: B1 VL with A51S, H92N
# notes: IgG format
# B11: HC 1251_B08 (wt)/LC 1337_A07 (g) (antibody, human IgG1, kappa, V domains shown)
# VH: B3 VH
# VL: B1 VL with L11V, E41G, S46L
# notes: IgG format
# B12: HC 1251_A06 (g)/LC 1275_C10 (wt) (antibody, human IgG1, kappa, V domains shown)
# VH: B1 VH with D42G
# VL: B1 VL with I29V, V33L, G50S, S52R, R53Y, H92N, T93L
# notes: IgG format
# B13: HC 1251_B08 (wt)/LC 1337_A09 (wt) (antibody, human IgG1, kappa, V domains shown)
# VH: B3 VH
# VL: B1 VL with S30G, V33L, G50A, S52D
# notes: IgG format
# B14: HC 1251_A06 (wt)/LC 1337_A10 (g) (antibody, human IgG1, kappa, V domains shown)
# VH: B1 VH
# VL: B1 VL with L11V, E41G, S46L, A51S, H92N
# notes: IgG format
# B15: HC 1251_A06 (wt)/LC 1275_C10 (g) (antibody, human IgG1, kappa, V domains shown)
# VH: B1 VH
# VL: B1 VL with L11V, I29V, V33L, E41G, S46L, G50S, S52R, R53Y, H92N, T93L
# notes: IgG format
# B16: HC 1251_A06 (wt)/LC 1337_A09 (g) (antibody, human IgG1, kappa, V domains shown)
# VH: B1 VH
# VL: B1 VL with L11V, S30G, V33L, E41G, S46L, G50A, S52D
# notes: IgG format
# B17: HC 1251_A06 (wt)/LC 1337_A10 (wt) (antibody, human IgG1, kappa, V domains shown)
# VH: B1 VH
# VL: B1 VL with A51S, H92N
# notes: IgG format
# B18: HC 1251_A06 (g)/LC 1337_A09 (wt) (antibody, human IgG1, kappa, V domains shown)
# VH: B1 VH with D42G
# VL: B1 VL with S30G, V33L, G50A, S52D
# notes: IgG format
# B19: HC 1251_B08 (wt)/LC 1275_C10 (wt) (antibody, human IgG1, kappa, V domains shown)
# VH: B3 VH
# VL: B1 VL with I29V, V33L, G50S, S52R, R53Y, H92N, T93L
# notes: IgG format
# B20: HC 1251_A06 (g)/LC 1275_C10 (g) (antibody, human IgG1, kappa, V domains shown)
# VH: B1 VH with D42G
# VL: B1 VL with L11V, I29V, V33L, E41G, S46L, G50S, S52R, R53Y, H92N, T93L
# notes: IgG format
# B21: HC 1251_A06 (g)/LC 1337_A07 (g) (antibody, human IgG1, kappa, V domains shown)
# VH: B1 VH with D42G
# VL: B1 VL with L11V, E41G, S46L
# notes: IgG format
# B22: HC 1251_A06 (wt)/LC 1337_A09 (wt) (antibody, human IgG1, kappa, V domains shown)
# VH: B1 VH
# VL: B1 VL with S30G, V33L, G50A, S52D
# notes: IgG format
# B23: HC 1251_B08 (wt)/LC 1275_C10 (g) (antibody, human IgG1, kappa, V domains shown)
# VH: B3 VH
# VL: B1 VL with L11V, I29V, V33L, E41G, S46L, G50S, S52R, R53Y, H92N, T93L
# notes: IgG format
# B24: HC 1251_B08 (g)/LC 1337_A07 (wt) (antibody, human IgG1, kappa, V domains shown)
# VH: B3 VH with D42G, A117T
# VL: B1 VL
# notes: IgG format
# B25: HC 1251_A06 (wt)/LC 1337_A07 (g) (antibody, human IgG1, kappa, V domains shown)
# VH: B1 VH
# VL: B1 VL with L11V, E41G, S46L
# notes: IgG format
# B26: HC 1251_B08 (wt)/LC 1337_A10 (g) (antibody, human IgG1, kappa, V domains shown)
# VH: B3 VH
# VL: B1 VL with L11V, E41G, S46L, A51S, H92N
# notes: IgG format
# B27: HC 1251_A06 (wt)/LC 1275_C10 (wt) (antibody, human IgG1, kappa)
# heavy: not shown
# light: MDIQMTQSPSSLSASVGDRVTITCRASQGVSSWLAWYQQKPEKAPKSLIYSARYLQSGVPSRFSGSGSGTDFTLTISSLQPEDFATYYCQQYNLYPLTFGGGTKVEIKRTVAAPSVFIFPPSDEQLKSGTASVVCLLNNFYPREAKVQWKVDNALQSGNSQESVTEQDSKDSTYSLSSTLTLSKADYEKHKVYACEVTHQGLSSPVTKSFNRGEC
# notes: IgG format
# B28: HC 1251_A06 (g)/LC 1337_A09 (g) (antibody, human IgG1, kappa, V domains shown)
# VH: B1 VH with D42G
# VL: B1 VL with L11V, S30G, V33L, E41G, S46L, G50A, S52D
# notes: IgG format
# B29: HC 1251_B08 (wt)/LC 1337_A10 (wt) (antibody, human IgG1, kappa, V domains shown)
# VH: B3 VH
# VL: B1 VL with A51S, H92N
# notes: IgG format
# B30: HC 1251_B08 (wt)/LC 1337_A09 (g) (antibody, human IgG1, kappa, V domains shown)
# VH: B3 VH
# VL: B1 VL with L11V, S30G, V33L, E41G, S46L, G50A, S52D
# notes: IgG format
# B31: HC 1251_A06 (g)/LC 1337_A10 (g) (antibody, human IgG1, kappa, V domains shown)
# VH: B1 VH with D42G
# VL: B1 VL with L11V, E41G, S46L, A51S, H92N
# notes: IgG format
# B32: HC 1251_B08 (g)/LC 1337_A10 (wt) (antibody, human IgG1, kappa, V domains shown)
# VH: B3 VH with D42G, A117T
# VL: B1 VL with A51S, H92N
# notes: IgG format
# Target: T1, hu-CD74 antigen (R&D SYSTEMS catalog …)
# Experiment: SPR (Biacore T200), IgG captured on anti-human Fc, rhCD74 analyte
# Procedure: Kinetic binding experiments were performed at 25° C. using 1×HBS-EP+buffer. Kinetic data was collected by injecting test and control antibodies at concentrations of 10, 5 and 2.5 μg/mL for 12 s at a flow rate of 10 μl/min on flow cells 2, 3 and 4 respectively, followed by a buffer wash for 30 s at the same flow rate. Kinetic characterization of antibody samples was carried out with 8 concentrations of a 1:2 dilution series of rhCD74 antigen (R&D Systems) and 2 injections of 0 nM antigen (buffer only). […] Between each ligand capture and analyte binding cycle, regeneration was carried out using 2 injections of 3M MgCl₂ for 30 seconds at 30 μL/min, followed by a 30 second buffer wash step.
Binder,Kd,koff,kon
B1,0.168 nM,0.0001 s⁻¹,598000 M⁻¹ s⁻¹
B2,0.166 nM,9.4e-05 s⁻¹,568000 M⁻¹ s⁻¹
B3,0.211 nM,8.01e-05 s⁻¹,379000 M⁻¹ s⁻¹
B4,0.332 nM,0.000102 s⁻¹,306000 M⁻¹ s⁻¹
B5,0.239 nM,7.76e-05 s⁻¹,325000 M⁻¹ s⁻¹
B6,0.64 nM,0.000106 s⁻¹,166000 M⁻¹ s⁻¹
B7,0.862 nM,0.000155 s⁻¹,180000 M⁻¹ s⁻¹
B8,0.252 nM,7.77e-05 s⁻¹,309000 M⁻¹ s⁻¹
B9,0.254 nM,9.97e-05 s⁻¹,392000 M⁻¹ s⁻¹
B10,0.188 nM,9.03e-05 s⁻¹,479000 M⁻¹ s⁻¹
B11,0.611 nM,0.000142 s⁻¹,232000 M⁻¹ s⁻¹
B12,0.341 nM,0.000177 s⁻¹,520000 M⁻¹ s⁻¹
B13,0.108 nM,0.000116 s⁻¹,1.07e+06 M⁻¹ s⁻¹
B14,0.411 nM,0.000235 s⁻¹,571000 M⁻¹ s⁻¹
B15,0.348 nM,0.000166 s⁻¹,478000 M⁻¹ s⁻¹
B16,0.18 nM,0.00011 s⁻¹,610000 M⁻¹ s⁻¹

Binder,Kd,koff,kon
B17,0.205 nM,0.000174 s⁻¹,847000 M⁻¹ s⁻¹
B18,0.189 nM,8.63e-05 s⁻¹,457000 M⁻¹ s⁻¹
B19,0.191 nM,0.000119 s⁻¹,623000 M⁻¹ s⁻¹
B20,0.209 nM,0.000148 s⁻¹,705000 M⁻¹ s⁻¹
B21,0.168 nM,7.1e-05 s⁻¹,424000 M⁻¹ s⁻¹
B22,0.156 nM,9.19e-05 s⁻¹,588000 M⁻¹ s⁻¹
B23,0.437 nM,0.000124 s⁻¹,284000 M⁻¹ s⁻¹
B24,0.349 nM,9.23e-05 s⁻¹,265000 M⁻¹ s⁻¹
B25,0.205 nM,0.000136 s⁻¹,660000 M⁻¹ s⁻¹
B26,0.957 nM,0.000183 s⁻¹,191000 M⁻¹ s⁻¹
B27,0.245 nM,0.00016 s⁻¹,654000 M⁻¹ s⁻¹
B28,0.131 nM,7.26e-05 s⁻¹,552000 M⁻¹ s⁻¹
B29,0.235 nM,0.000115 s⁻¹,491000 M⁻¹ s⁻¹
B30,0.347 nM,0.000115 s⁻¹,332000 M⁻¹ s⁻¹
B31,0.389 nM,0.000148 s⁻¹,380000 M⁻¹ s⁻¹
B32,0.385 nM,0.00012 s⁻¹,312000 M⁻¹ s⁻¹
